# Source: US20250034275A1 (CHIA TAI TIANQING PHARMACEUTICAL GROUP, published 2025)
# Where a chain is given by its changes, count along the chain named.
# B1: ch-Ab2 (antibody, human IgG1, kappa, V domains shown)
# VH: EVQLVESGPGLVAPSQSLSITCTVSGFSLTYYGIDWVRQPPGKGLEWLGVIWGSGNTKYNSALMSRLSISKDNSKSQVFLRMNSLQSDDTAIYYCARFYEGFAYWGQGTLVTVSA
# VL: AIVLTQSPSSMYASLGERVTITCKASQDINSYLSWFQQKPGKSPKTLIYRANRLVDGVPSRFSGSGSGQDYSLTISSLEYEDMGIYYCLQYDEFPLTFGVGTKLELKR
# notes: also called chimeric antibody of Ab2
# B2: hz-Ab2-1.3 (antibody, human IgG1, kappa, V domains shown)
# VH: QVQLQESGPGLVKPSETLSLTCTVSGFSLTYYGIDWIRQPPGKGLEWIGVIWGSGNTKYNSALKSRVTISKDNSKSQFSLKLSSVTAADTAVYYCARFYEGFAYWGQGTLVTVSS
# VL: DIQMTQSPSSLSASVGDRVTITCKASQDINSYLSWFQQKPGKAPKTLIYRANRLVEGVPSRFSGSGSGQDYTLTISSLQPEDFATYYCLQYDEFPLTFGQGTKVEIKR
# notes: Humanized antibody
# B3: hz-Ab2-1.2 (antibody, human IgG1, kappa, V domains shown)
# VH: EVQLVESGPGLIQPGGSLRLSCAVSGFSLTYYGIDWVRQPPGKGLEWVGVIWGSGNTKYNYALKSRLTISKDNSKSTLYLQMNSLRAEDTAVYYCARFYEGFAYWGQGTLVTVSS
# VL: B2 VL
# notes: Humanized antibody
# B4: hz-Ab2-1.4 (antibody, human IgG1, kappa, V domains shown)
# VH: B2 VH with F78V, S79Y
# VL: B2 VL
# notes: Humanized antibody
# B5: hz-Ab2-1.1 (antibody, human IgG1, kappa, V domains shown)
# VH: B3 VH with P9G, G49S, Y61S, K71R
# VL: B2 VL
# notes: Humanized antibody
# B6: hz-Ab2-2.3 (antibody, human IgG1, kappa, V domains shown)
# VH: B2 VH
# VL: B2 VL with K24R, Y71F, F94Y
# notes: Humanized antibody
# B7: hz-Ab2-2.2 (antibody, human IgG1, kappa, V domains shown)
# VH: B3 VH
# VL: B2 VL with K24R, Y71F, F94Y
# notes: Humanized antibody
# B8: hz-Ab2-2.1 (antibody, human IgG1, kappa, V domains shown)
# VH: B3 VH with P9G, G49S, Y61S, K71R
# VL: B2 VL with K24R, Y71F, F94Y
# notes: Humanized antibody
# Target: T1, human Trop-2 (on the surface of human cell lines) (human, UniProt P09758 27-323)
# T1 construct: Endogenous Trop-2 on NCI-H322, Capan-1, PC-3, HUVEC, OVCAR-3, HCC38 and HCC1806 cells; also called TACSTD2
# T1 sequence: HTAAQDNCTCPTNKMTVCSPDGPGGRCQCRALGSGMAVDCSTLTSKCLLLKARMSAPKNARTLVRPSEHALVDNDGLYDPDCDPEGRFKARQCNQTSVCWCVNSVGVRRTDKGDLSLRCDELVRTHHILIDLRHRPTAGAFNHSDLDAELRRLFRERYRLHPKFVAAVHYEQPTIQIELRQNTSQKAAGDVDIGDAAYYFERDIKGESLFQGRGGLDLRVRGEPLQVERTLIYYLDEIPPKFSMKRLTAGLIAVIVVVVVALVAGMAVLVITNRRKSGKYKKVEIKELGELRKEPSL
# Experiment: flow cytometry, HCC1806 cells
# Method: (§1) Tumor cells expressing Trop-2 were prepared into a cell suspension (0.5-1×10⁶ cells/mL) using the FACS buffer (Miltenyi Biotec, 130-091-221), and the cell suspension was added to a 96-well V-bottom plate at 100 μL/well. After centrifugation and removal of the supernatant, the test antibodies diluted with the FACS buffer to different concentrations (0.006 nM-100 nM) were each added at 50 μL/well. The mixture was incubated in the dark in a 4° C. refrigerator for 1 h. The plate was then washed 3 times with the FACS buffer by centrifugation at 300 g, and Alexa Fluor 488 goat anti-human IgG (H+L) (Bio-legend, 409304, 1:500 dilution) at working concentration was added. The mixture was incubated in the dark in a 4° C. refrigerator for 40 min. The plate was then washed 3 times with the FACS buffer by centrifugation at 300 g, the geometric mean fluorescence intensity (MFI) was measured on a Sartorius iQue3 flow cytometer, and the binding EC₅₀ values of the antibodies for tumor cells with different Trop-2 expression levels were calculated
row,Binder,EC50 [pM]
1,B1,780
2,B2,1220
3,B3,900
4,B4,1070

# Target: T2, Macaque Trop-2-His (macaque, UniProt P09758 27-274 (human entry))
# T2 construct: Extracellular domain of macaque Trop-2 recombinantly linked to His; also called monkey Trop-2-His protein; monkey Trop-2
# T2 chain: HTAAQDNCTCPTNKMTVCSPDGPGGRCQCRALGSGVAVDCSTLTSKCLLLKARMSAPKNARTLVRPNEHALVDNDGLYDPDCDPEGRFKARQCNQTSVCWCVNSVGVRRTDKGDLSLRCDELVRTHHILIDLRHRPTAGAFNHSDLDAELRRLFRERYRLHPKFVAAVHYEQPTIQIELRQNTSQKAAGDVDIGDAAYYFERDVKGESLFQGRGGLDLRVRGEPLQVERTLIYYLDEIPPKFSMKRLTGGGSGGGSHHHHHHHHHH
# Experiment: ELISA, plate-coated macaque Trop-2-His
# Method: (§2) After the liquid was discarded, 2% BSA (SIGMA, B2064-100G) diluted with PBS was added at 300 μL/well for blocking, and the mixture was incubated at 37° C. for 2 h. After the blocking was completed, the blocking buffer was discarded, the plate was washed 3 times with the PBST buffer (pH 7.4 PBS containing 0.1% tween-20), the antibody solution diluted in a gradient was added at 100 μL/well, and the mixture was incubated at 37° C. for 1 h. After the incubation was completed, the plate was washed 3 times with PBST, the goat anti-human IgG (H+L) (JacksonImmunoResearch, 109-035-098, 1:5000 dilution) was added at 100 μL/well, and the mixture was incubated at 37° C. for 1 h. After the plate was washed 3 times with PBST, a TMB chromogenic substrate (TIANGEN, PA107-01) was added at 100 μL/well. The mixture was incubated at room temperature for 10-15 min, and then 1 M H₂SO₄ was added at 50 μL/well to terminate the reaction. The absorbance values at 450 nm were taken using a microplate reader. The binding curves of antibodies for antigen were fitted using software, and the EC₅₀ values were calculated.
row,Binder,EC50 [pM]
1,B1,48
2,B5,133
3,B2,68
4,B6,830
5,B7,341
6,B3,64
7,B4,53
8,B8,1190

# Target: T3, human Trop-2-His (human, UniProt P09758 27-274, limits assumed)
# T3 construct: by analogy with the macaque construct it is probably the extracellular domain with a His tag; also called Trop-2-His protein
# T3 sequence: T2 chain with V36M, N67S, V204I
# Experiment: ELISA, plate-coated human Trop-2-His
# Method: as §2, with “with” for “with the”
row,Binder,EC50 [pM]
1,B1,85
2,B5,82
3,B2,81
4,B6,359
5,B7,218
6,B3,76
7,B4,68
8,B8,1080

# Target: T1, human Trop-2 (on the surface of human …)
# Experiment: cell-based or functional assay
Binder,"ADCC reporter (Jurkat-CD16a v158-NFAT-luciferase), target cell H322, EC50 [pM]","ADCC reporter (Jurkat-CD16a v158-NFAT-luciferase), target cell HCC1806, EC50 [pM]"
B1,170,200
B5,1450,4100
B2,170,330
B3,310,420
B4,340,390

# Target: T1, human Trop-2 (on the surface of human …)
# Experiment: flow cytometry, HCC38 cells
# Method: as §1
row,Binder,EC50 [pM]
1,B1,590
2,B2,650
3,B3,760
4,B4,1200

# Target: T3, human Trop-2-His
# Experiment: SPR (Biacore 8K), antibody captured, Trop-2-His as analyte
# Text: The affinity of antibodies for human Trop-2-His was detected in the form of antibody capturing. The antibody was affinity-captured by a CM5 (Cat. #29149603, GE) biosensor chip conjugated with an anti-human IgG antibody (from human antibody capture kit, Cat. #29234600, GE), then the antigen human Trop-2-His flowed on the surface of the chip, and a Biacore 8K instrument was used for detecting reaction signals in real time to obtain association and dissociation curves. After dissociation was completed for each assay cycle, the chip was washed clean and regenerated with a regeneration buffer, 3M MgCl₂ (from human antibody capture kit, Cat. #29234600, GE). The association and dissociation curves were collected by Biacore 8K Control Software 3.0 in real time, and the data were analyzed by Biacore Insight Evaluation Software 3.0. The data were fitted using a Langmuir 1:1 model after double subtraction (namely, in each cycle, the contrast channel signal was subtracted from the experimental channel signal, and the sample signal was subtracted from the blank signal), and the association rate constant Ka, the dissociation rate constant Kd, and the equilibrium constant KD were calculated.
Binder,Kd [pM],koff [s⁻¹],kon [M⁻¹ s⁻¹]
B5,47800,0.0029,60600
B2,16500,0.0165,1e+06
B6,2720,0.000643,237000
B7,2410,0.00059,245000
B3,1430,0.00508,3.56e+06
B4,2320,0.00284,1.22e+06
B8,686,0.00023,336000

# Target: T1, human Trop-2 (on the surface of human …)
# Experiment: cell-based or functional assay
# Remark: another data set of the same source
Binder,"ADCC, PBMC killing (LDH), H322, EC50 [pM]","ADCC, PBMC killing (LDH), H322, Maximum killing (%)","ADCC, PBMC killing (LDH), HCC1806, EC50 [pM]","ADCC, PBMC killing (LDH), HCC1806, Maximum killing (%)"
B1,10,48.1,20,40
B5,130,47.8,460,32.9
B2,20,48.1,60,37
B3,10,48.4,30,36.6
B4,10,48.7,20,34.8
